# Source: paper PMC7556753, “A double role of the Gal80 N terminus in activation of transcription by Gal4p” (Life Science Alliance, 2020)
# T1: KlGal1p with N-terminal His6-tag (NHKlGal1p) (Kluyveromyces lactis) (UniProt P09608)
# T1 sequence: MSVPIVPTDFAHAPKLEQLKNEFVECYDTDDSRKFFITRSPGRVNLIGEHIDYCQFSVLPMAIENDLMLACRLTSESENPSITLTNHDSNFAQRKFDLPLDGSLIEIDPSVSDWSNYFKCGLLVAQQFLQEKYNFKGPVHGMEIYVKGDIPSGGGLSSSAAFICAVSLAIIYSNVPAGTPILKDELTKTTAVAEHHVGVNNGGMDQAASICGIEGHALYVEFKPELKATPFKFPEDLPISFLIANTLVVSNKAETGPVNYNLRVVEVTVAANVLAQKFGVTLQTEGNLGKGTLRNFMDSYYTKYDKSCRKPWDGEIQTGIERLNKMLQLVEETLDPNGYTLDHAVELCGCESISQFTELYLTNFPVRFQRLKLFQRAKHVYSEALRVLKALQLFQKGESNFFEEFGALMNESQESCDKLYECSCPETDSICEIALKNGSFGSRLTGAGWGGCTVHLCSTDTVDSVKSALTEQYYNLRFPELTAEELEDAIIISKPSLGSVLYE
# T2: KlGal1p with N-terminal His6-tag (NHKlGal1p) (Kluyveromyces lactis, UniProt P09608 1-503)
# T2 construct: KlGal1p, galactokinase (Gal1 protein) of Kluyveromyces lactis; also called NHGal1p; source: E. coli Rosetta (DE3)-pLys, from pETNHG1, purified as described in Anders et al, 2006b; not shown: His6, N-terminal, kept
# T2 sequence (looked up): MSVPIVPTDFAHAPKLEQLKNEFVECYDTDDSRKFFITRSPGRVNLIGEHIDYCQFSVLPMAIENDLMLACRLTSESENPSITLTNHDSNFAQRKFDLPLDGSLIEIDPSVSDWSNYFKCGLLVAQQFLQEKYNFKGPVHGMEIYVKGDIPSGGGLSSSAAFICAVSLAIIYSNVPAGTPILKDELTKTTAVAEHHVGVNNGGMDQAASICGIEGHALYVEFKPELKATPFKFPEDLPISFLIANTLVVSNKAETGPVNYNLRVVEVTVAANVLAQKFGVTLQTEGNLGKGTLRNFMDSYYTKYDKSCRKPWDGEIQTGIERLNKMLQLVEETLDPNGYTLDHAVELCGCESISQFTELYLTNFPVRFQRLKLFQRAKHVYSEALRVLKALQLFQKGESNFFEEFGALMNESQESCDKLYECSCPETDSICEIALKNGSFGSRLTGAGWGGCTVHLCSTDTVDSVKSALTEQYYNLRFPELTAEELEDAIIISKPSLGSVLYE
# Legend:
# [1] = target: T1, KlGal1p with N-terminal His6-tag (NHKlGal1p) (Kluyveromyces lactis)
# [2] = target: T1, KlGal1p with N-terminal His6-tag (NHKlGal1p) (Kluyveromyces lactis); assay: galactokinase inhibition titration; 10 nM NHGal1p with increasing concentrations of NHKlGal80p or NHKlGal80-KR56Ap; ADP production coupled to pyruvate kinase and lactate dehydrogenase (NADH consumption); apparent KD from the decline in KlGal1p activity
# [3] = target: T2, KlGal1p with N-terminal His6-tag …; assay: as above; details: both partners purified
molecule,measurement,setting,value
KlGal80-K5A/R6Ap with N-terminal His6-tag (NHKlGal80-K5A/R6Ap) (from UniProt Q06433 1-457) (natural protein),relative galactokinase activity of KlGal1p with KlGal80-K5A/R6Ap (in % of the activity in the absence of KlGal80p or its peptide),[1],93.6%
same,Kd,[2],3.1 µM
MNNNKRSKLSTVPSSRP [peptide KlN17G80 (N-terminal 17 residues of KlGal80p)],relative galactokinase activity of KlGal1p with the KlN17G80 peptide alone (in % of the activity in the absence of KlGal80p or its peptide),[1],99.4%
"KlGal80p with N-terminal His6-tag (NHKlGal80p) (natural protein, Kluyveromyces lactis, KlGal80p, Gal80 protein of Kluyveromyces lactis, wild type; 457 residues by the printed fragment aa 40-457; also called KlGal80p wild-type; source: E. coli Rosetta (DE3)-pLys, from pETNHG80, purified as described in Anders et al, 2006b; not shown: His6, N-terminal, kept) MNNNKRSKLSTVPSSRPIRVGFVGLTSGKSWVAKTHFLAIQQLSSQFQIVALYNPTLKSSLQTIEQLQLKHATGFDSLESFAQYKDIDMIVVSVKVPEHYEVVKNILEHSSQNLNLRYLYVEWALAASVQQAEELYSISQQRANLQTIICLQGRKSPYIVRAKELISEGCIGDINSIEISGNGGWYGYERPMRSPEYLYDIESGVNLISNSFGHTIDVLQYITGSYFQKINAMISNNIPTQFLLDENGKRTKETISKTCPDHLLFQGILENGKVPVSCSFKGGTPVKKLTKNLVIDIHGTKGDLKIEGDAGFVEISNLVLYFYGIKNGNGSSNGTDNNGAAAIKDKEKVTKSPSPSTGTSEEEQTMEVFHLRNYNSVVGNILRIYESIADYHFLGKPESKSSRGPDDLFASTKFDKQGFRFEGFPTFKDAIILHRLIDAVFRSDKEEKTLDVSKIMI",Kd,[3],81 nM
